# Laboratory results as given in ChEMBL document CHEMBL1212811, “Chemical phylogenetics of histone deacetylases” (Nat Chem Biol, 2010).
# B1: Histone deacetylase 8 (Homo sapiens), Q9BY41 (protein)
# chain: MEEPEEPADSGQSLVPVYIYSPEYVSMCDSLAKIPKRASMVHSLIEAYALHKQMRIVKPKVASMEEMATFHTDAYLQHLQKVSQEGDDDHPDSIEYGLGYDCPATEGIFDYAAAIGGATITAAQCLIDGMCKVAINWSGGWHHAKKDEASGFCYLNDAVLGILRLRRKFERILYVDLDLHHGDGVEDAFSFTSKVMTVSLHKFSPGFFPGTGDVSDVGLGKGRYYSVNVPIQDGIQDEKYYQICESVLKEVYQAFNPKAVVLQLGADTIAGDPMCSFNMTPVGIGKCLKYILQWQLATLILGGGGYNLANTARCWTYLTGVILGKTLSSEIPDHEFFTAYGPDYVLEITPSCRPDRNEPHRIQQILNYIKGNLKHVV
# B2: Histone deacetylase 4 (Homo sapiens), P56524 (protein)
# chain: MSSQSHPDGLSGRDQPVELLNPARVNHMPSTVDVATALPLQVAPSAVPMDLRLDHQFSLPVAEPALREQQLQQELLALKQKQQIQRQILIAEFQRQHEQLSRQHEAQLHEHIKQQQEMLAMKHQQELLEHQRKLERHRQEQELEKQHREQKLQQLKNKEKGKESAVASTEVKMKLQEFVLNKKKALAHRNLNHCISSDPRYWYGKTQHSSLDQSSPPQSGVSTSYNHPVLGMYDAKDDFPLRKTASEPNLKLRSRLKQKVAERRSSPLLRRKDGPVVTALKKRPLDVTDSACSSAPGSGPSSPNNSSGSVSAENGIAPAVPSIPAETSLAHRLVAREGSAAPLPLYTSPSLPNITLGLPATGPSAGTAGQQDAERLTLPALQQRLSLFPGTHLTPYLSTSPLERDGGAAHSPLLQHMVLLEQPPAQAPLVTGLGALPLHAQSLVGADRVSPSIHKLRQHRPLGRTQSAPLPQNAQALQHLVIQQQHQQFLEKHKQQFQQQQLQMNKIIPKPSEPARQPESHPEETEEELREHQALLDEPYLDRLPGQKEAHAQAGVQVKQEPIESDEEEAEPPREVEPGQRQPSEQELLFRQQALLLEQQRIHQLRNYQASMEAAGIPVSFGGHRPLSRAQSSPASATFPVSVQEPPTKPRFTTGLVYDTLMLKHQCTCGSSSSHPEHAGRIQSIWSRLQETGLRGKCECIRGRKATLEELQTVHSEAHTLLYGTNPLNRQKLDSKKLLGSLASVFVRLPCGGVGVDSDTIWNEVHSAGAARLAVGCVVELVFKVATGELKNGFAVVRPPGHHAEESTPMGFCYFNSVAVAAKLLQQRLSVSKILIVDWDVHHGNGTQQAFYSDPSVLYMSLHRYDDGNFFPGSGAPDEVGTGPGVGFNVNMAFTGGLDPPMGDAEYLAAFRTVVMPIASEFAPDVVLVSSGFDAVEGHPTPLGGYNLSARCFGYLTKQLMGLAGGRIVLALEGGHDLTAICDASEACVSALLGNELDPLPEKVLQQRPNANAVRSMEKVMEIHSKYWRCLQRTTSTAGRSLIEAQTCENEEAETVTAMASLSVGVKPAEKRPDEEPMEEEPPL
# B3: Histone deacetylase 3 (Homo sapiens), O15379 (protein)
# chain: MAKTVAYFYDPDVGNFHYGAGHPMKPHRLALTHSLVLHYGLYKKMIVFKPYQASQHDMCRFHSEDYIDFLQRVSPTNMQGFTKSLNAFNVGDDCPVFPGLFEFCSRYTGASLQGATQLNNKICDIAINWAGGLHHAKKFEASGFCYVNDIVIGILELLKYHPRVLYIDIDIHHGDGVQEAFYLTDRVMTVSFHKYGNYFFPGTGDMYEVGAESGRYYCLNVPLRDGIDDQSYKHLFQPVINQVVDFYQPTCIVLQCGADSLGCDRLGCFNLSIRGHGECVEYVKSFNIPLLVLGGGGYTVRNVARCWTYETSLLVEEAISEELPYSEYFEYFAPDFTLHPDVSTRIENQNSRQYLDQIRQTIFENLKMLNHAPSVQIHDVPADLLTYDRTDEADAEERGPEENYSRPEAPNEFYDGDHDNDKESDVEI
# B4: Histone deacetylase 9 (Homo sapiens), Q9UKV0 (protein)
# chain: MHSMISSVDVKSEVPVGLEPISPLDLRTDLRMMMPVVDPVVREKQLQQELLLIQQQQQIQKQLLIAEFQKQHENLTRQHQAQLQEHIKELLAIKQQQELLEKEQKLEQQRQEQEVERHRREQQLPPLRGKDRGRERAVASTEVKQKLQEFLLSKSATKDTPTNGKNHSVSRHPKLWYTAAHHTSLDQSSPPLSGTSPSYKYTLPGAQDAKDDFPLRKTASEPNLKVRSRLKQKVAERRSSPLLRRKDGNVVTSFKKRMFEVTESSVSSSSPGSGPSSPNNGPTGSVTENETSVLPPTPHAEQMVSQQRILIHEDSMNLLSLYTSPSLPNITLGLPAVPSQLNASNSLKEKQKCETQTLRQGVPLPGQYGGSIPASSSHPHVTLEGKPPNSSHQALLQHLLLKEQMRQQKLLVAGGVPLHPQSPLATKERISPGIRGTHKLPRHRPLNRTQSAPLPQSTLAQLVIQQQHQQFLEKQKQYQQQIHMNKLLSKSIEQLKQPGSHLEEAEEELQGDQAMQEDRAPSSGNSTRSDSSACVDDTLGQVGAVKVKEEPVDSDEDAQIQEMESGEQAAFMQQPFLEPTHTRALSVRQAPLAAVGMDGLEKHRLVSRTHSSPAASVLPHPAMDRPLQPGSATGIAYDPLMLKHQCVCGNSTTHPEHAGRIQSIWSRLQETGLLNKCERIQGRKASLEEIQLVHSEHHSLLYGTNPLDGQKLDPRILLGDDSQKFFSSLPCGGLGVDSDTIWNELHSSGAARMAVGCVIELASKVASGELKNGFAVVRPPGHHAEESTAMGFCFFNSVAITAKYLRDQLNISKILIVDLDVHHGNGTQQAFYADPSILYISLHRYDEGNFFPGSGAPNEVGTGLGEGYNINIAWTGGLDPPMGDVEYLEAFRTIVKPVAKEFDPDMVLVSAGFDALEGHTPPLGGYKVTAKCFGHLTKQLMTLADGRVVLALEGGHDLTAICDASEACVNALLGNELEPLAEDILHQSPNMNAVISLQKIIEIQSMSLKFS
# B5: Histone deacetylase 7 (Homo sapiens), Q8WUI4 (protein)
# chain: MDLRVGQRPPVEPPPEPTLLALQRPQRLHHHLFLAGLQQQRSVEPMRLSMDTPMPELQVGPQEQELRQLLHKDKSKRSAVASSVVKQKLAEVILKKQQAALERTVHPNSPGIPYRTLEPLETEGATRSMLSSFLPPVPSLPSDPPEHFPLRKTVSEPNLKLRYKPKKSLERRKNPLLRKESAPPSLRRRPAETLGDSSPSSSSTPASGCSSPNDSEHGPNPILGSEALLGQRLRLQETSVAPFALPTVSLLPAITLGLPAPARADSDRRTHPTLGPRGPILGSPHTPLFLPHGLEPEAGGTLPSRLQPILLLDPSGSHAPLLTVPGLGPLPFHFAQSLMTTERLSGSGLHWPLSRTRSEPLPPSATAPPPPGPMQPRLEQLKTHVQVIKRSAKPSEKPRLRQIPSAEDLETDGGGPGQVVDDGLEHRELGHGQPEARGPAPLQQHPQVLLWEQQRLAGRLPRGSTGDTVLLPLAQGGHRPLSRAQSSPAAPASLSAPEPASQARVLSSSETPARTLPFTTGLIYDSVMLKHQCSCGDNSRHPEHAGRIQSIWSRLQERGLRSQCECLRGRKASLEELQSVHSERHVLLYGTNPLSRLKLDNGKLAGLLAQRMFVMLPCGGVGVDTDTIWNELHSSNAARWAAGSVTDLAFKVASRELKNGFAVVRPPGHHADHSTAMGFCFFNSVAIACRQLQQQSKASKILIVDWDVHHGNGTQQTFYQDPSVLYISLHRHDDGNFFPGSGAVDEVGAGSGEGFNVNVAWAGGLDPPMGDPEYLAAFRIVVMPIAREFSPDLVLVSAGFDAAEGHPAPLGGYHVSAKCFGYMTQQLMNLAGGAVVLALEGGHDLTAICDASEACVAALLGNRVDPLSEEGWKQKPNLNAIRSLEAVIRVHSKYWGCMQRLASCPDSWVPRVPGADKEEVEAVTALASLSVGILAEDRPSEQLVEEEEPMNL
# B6: Protein deacetylase HDAC6 (Homo sapiens), Q9UBN7 (protein)
# chain: MTSTGQDSTTTRQRRSRQNPQSPPQDSSVTSKRNIKKGAVPRSIPNLAEVKKKGKMKKLGQAMEEDLIVGLQGMDLNLEAEALAGTGLVLDEQLNEFHCLWDDSFPEGPERLHAIKEQLIQEGLLDRCVSFQARFAEKEELMLVHSLEYIDLMETTQYMNEGELRVLADTYDSVYLHPNSYSCACLASGSVLRLVDAVLGAEIRNGMAIIRPPGHHAQHSLMDGYCMFNHVAVAARYAQQKHRIRRVLIVDWDVHHGQGTQFTFDQDPSVLYFSIHRYEQGRFWPHLKASNWSTTGFGQGQGYTINVPWNQVGMRDADYIAAFLHVLLPVALEFQPQLVLVAAGFDALQGDPKGEMAATPAGFAQLTHLLMGLAGGKLILSLEGGYNLRALAEGVSASLHTLLGDPCPMLESPGAPCRSAQASVSCALEALEPFWEVLVRSTETVERDNMEEDNVEESEEEGPWEPPVLPILTWPVLQSRTGLVYDQNMMNHCNLWDSHHPEVPQRILRIMCRLEELGLAGRCLTLTPRPATEAELLTCHSAEYVGHLRATEKMKTRELHRESSNFDSIYICPSTFACAQLATGAACRLVEAVLSGEVLNGAAVVRPPGHHAEQDAACGFCFFNSVAVAARHAQTISGHALRILIVDWDVHHGNGTQHMFEDDPSVLYVSLHRYDHGTFFPMGDEGASSQIGRAAGTGFTVNVAWNGPRMGDADYLAAWHRLVLPIAYEFNPELVLVSAGFDAARGDPLGGCQVSPEGYAHLTHLLMGLASGRIILILEGGYNLTSISESMAACTRSLLGDPPPLLTLPRPPLSGALASITETIQVHRRYWRSLRVMKVEDREGPSSSKLVTKKAPQPAKPRLAERMTTREKKVLEAGMGKVTSASFGEESTPGQTNSETAVVALTQDQPSEAATGGATLAQTISEAAIGGAMLGQTTSEEAVGGATPDQTTSEETVGGAILDQTTSEDAVGGATLGQTTSEEAVGGATLAQTTSEAAMEGATLDQTTSEEAPGGTELIQTPLASSTDHQTPPTSPVQGTTPQISPSTLIGSLRTLELGSESQGASESQAPGEENLLGEAAGGQDMADSMLMQGSRGLTDQAIFYAVTPLPWCPHLVAVCPIPAAGLDVTQPCGDCGTIQENWVCLSCYQVYCGRYINGHMLQHHGNSGHPLVLSYIDLSAWCYYCQAYVHHQALLDVKNIAHQNKFGEDMPHPH
# Assays:
# [1] = substrate: CC(=O)N[C@@H](CC(C)C)C(=O)NCC(=O)N[C@@H](CCCCNC(=O)C(F)(F)F)C(=O)Nc1ccc2c(C)cc(=O)oc2c1; assay: Activity of HDAC8 at 10 uM
# [2] = substrate: CC(=O)N[C@@H](CC(C)C)C(=O)NCC(=O)N[C@@H](CCCCNC(=O)C(F)(F)F)C(=O)Nc1ccc2c(C)cc(=O)oc2c1; assay: Activity of HDAC4 at 10 uM
# [3] = substrate: CC(=O)NCCCC[C@H](NC(=O)CNC(=O)[C@H](CC(C)C)NC(C)=O)C(=O)Nc1ccc2c(C)cc(=O)oc2c1; conditions: 10 uM
# [4] = substrate: CC(=O)N[C@@H](CC(C)C)C(=O)NCC(=O)N[C@@H](CCCCNC(=O)C(F)(F)F)C(=O)Nc1ccc2c(C)cc(=O)oc2c1; assay: Activity of HDAC9 at 10 uM
# [5] = substrate: CC(=O)N[C@@H](CC(C)C)C(=O)NCC(=O)N[C@@H](CCCCNC(=O)C(F)(F)F)C(=O)Nc1ccc2c(C)cc(=O)oc2c1; assay: Activity of HDAC7 at 10 uM
# [6] = substrate: CC(=O)NCCCC[C@H](NC(=O)CNC(=O)[C@H](CC(C)C)NC(C)=O)C(=O)Nc1ccc2c(C)cc(=O)oc2c1; conditions: 10 uM; remark: listed apart in the source
protein,measurement,setting,value
B1,Km,[1],190 µM
B2,Km,[2],10.3 µM
B3,Km,[3],6 µM
B4,Km,[4],37 µM
B5,Km,[5],19.8 µM
B6,Km,[6],16 µM
